Laboratory results from publication PMC5353710, “Structural insights into the γ-lactamase activity and substrate enantioselectivity of an isochorismatase-like hydrolase from Microbacterium hydrocarbonoxydans” (Scientific Reports, 2017).

What was measured:
purified protein [1] = substrate: O=C1N[C@@H]2C=C[C@H]1C2; experiment: purified protein; details: 50 mM Tris-HCl pH 7.5, 25 °C, substrate 5 to 200 mM
purified protein [2] = substrate: O=C1N[C@H]2C=C[C@@H]1C2; experiment: purified protein; details: 50 mM Tris-HCl pH 7.5, 25 °C, substrate 5 to 200 mM

B1: MhIHL (Mh33H4-5540) (Microbacterium hydrocarbonoxydans) (protein)
chain: MAAPRRTVVLAIDLQAGVTPGCFDEEGVLSRAAALVERARAGGVPVVWVHHDPVGVGTPEWELAAPLHRAEGEPLVRKNYRDSFADTTLRETLDELGATHLVITGAQSDFCVRTTMQRAAAEGYDVTLVSDAHTTVDTEWEGVRISGEQIVAHTNMYFSGLRYPGQEFVIATHDHVAL
B1 gave a Km (purified protein [1]) of 12.9 mM, a kcat (purified protein [1]) of 203 s⁻¹ and a kcat/Km (purified protein [1]) of 15800 M⁻¹ s⁻¹. It also gave a Km (purified protein [2]) of 34.2 mM, a kcat (purified protein [2]) of 19.8 s⁻¹ and a kcat/Km (purified protein [2]) of 580 M⁻¹ s⁻¹.
